According to patent publication US20210130436A1 (published 2021):
Substitutions are numbered along the chain they refer to. Names and notes keep the numbering of the source.

T1: CD96 (UniProt P40200 22-585, limits assumed)
T1 construct: whole, on cells
T1 sequence (looked up): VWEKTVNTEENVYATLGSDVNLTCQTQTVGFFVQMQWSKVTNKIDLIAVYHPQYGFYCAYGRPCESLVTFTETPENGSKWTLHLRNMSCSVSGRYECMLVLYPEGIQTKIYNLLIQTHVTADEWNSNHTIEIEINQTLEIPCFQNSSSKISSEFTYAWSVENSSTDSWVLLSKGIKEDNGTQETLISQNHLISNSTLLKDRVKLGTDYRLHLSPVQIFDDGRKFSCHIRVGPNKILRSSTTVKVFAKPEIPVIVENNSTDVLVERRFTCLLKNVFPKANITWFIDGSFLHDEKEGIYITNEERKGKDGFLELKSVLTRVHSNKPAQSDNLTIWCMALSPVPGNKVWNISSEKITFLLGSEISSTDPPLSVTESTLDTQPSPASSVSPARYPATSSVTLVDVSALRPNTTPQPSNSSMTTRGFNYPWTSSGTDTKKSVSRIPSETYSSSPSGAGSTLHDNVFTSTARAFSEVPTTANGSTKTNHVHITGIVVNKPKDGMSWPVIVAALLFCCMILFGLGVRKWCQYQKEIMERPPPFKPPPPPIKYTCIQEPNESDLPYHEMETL

T2: CD226 (Homo sapiens (Human), UniProt Q15762 19-336)
T2 sequence: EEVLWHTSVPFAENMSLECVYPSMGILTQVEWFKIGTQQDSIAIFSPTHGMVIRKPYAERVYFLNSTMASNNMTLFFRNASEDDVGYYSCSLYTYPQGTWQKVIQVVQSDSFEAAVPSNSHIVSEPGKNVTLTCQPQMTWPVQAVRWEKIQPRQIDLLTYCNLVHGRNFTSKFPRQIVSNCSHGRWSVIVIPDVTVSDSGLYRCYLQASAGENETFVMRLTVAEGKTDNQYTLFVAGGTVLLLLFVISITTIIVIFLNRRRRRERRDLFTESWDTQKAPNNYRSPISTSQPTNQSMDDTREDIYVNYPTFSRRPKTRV

B1: variant CD155 IgV-Fc L104E (Fc fusion, not shown: a dimerising Fc or GST)
chain: WPPPGTGDVVVQAPTQVPGFLGDSVTLPCYLQVPNMEVTHVSQLTWARHGESGSMAVFHQTQGPSYSESKRLEFVAARLGAELRNASLRMFGLRVEDEGNYTCEFVTFPQGSRSVDIWLRVL
B2: variant CD155 IgV-Fc S52M/V57L (Fc fusion, not shown: a dimerising Fc or GST)
chain: B1 chain with S52M, V57L, E104L
B3: variant CD155 IgV-Fc L104Q (Fc fusion, not shown: a dimerising Fc or GST)
chain: B1 chain with E104Q
B4: variant CD155 IgV-Fc S42G (Fc fusion, not shown: a dimerising Fc or GST)
chain: B1 chain with S42G, E104L
B5: variant CD155 IgV-Fc S42C/S52L (Fc fusion, not shown: a dimerising Fc or GST)
chain: B1 chain with S42C, S52L, E104L
B6: variant CD80 IgV-Fc M47L (Fc fusion, not shown: small tags and cut ends; a dimerising Fc or GST)
chain: VIHVTKEVKEVATLSCGHNVSVEELAQTRIYWQKEKKMVLTMMSGDLNIWPEYKNRTIFDITNNLSIVILALRPSDEGTYECVVLKYEKDAFKREHLAEVTLSVKAD
B7: variant CD80 IgV-Fc S15P/Q33L/E35D/M47L/L85Q (Fc fusion, not shown: a dimerising Fc or GST)
chain: B6 chain with S15P, Q33L, E35D, L85Q
B8: variant CD80 IgV-Fc E35D/D46V (Fc fusion, not shown: small tags and cut ends; a dimerising Fc or GST)
chain: B6 chain with E35D, D46V, L47M
B9: variant CD80 IgV-Fc E35D/D46V/V68M (Fc fusion, not shown: small tags and cut ends; a dimerising Fc or GST)
chain: B6 chain with E35D, D46V, L47M, V68M
B10: variant CD80 IgV-Fc D46V/M47L (Fc fusion, not shown: small tags and cut ends; a dimerising Fc or GST)
chain: B6 chain with D46V
B11: variant CD80 IgV-Fc D46V/M47L/V68M/L85Q (Fc fusion, not shown: small tags and cut ends; a dimerising Fc or GST)
chain: B6 chain with D46V, V68M, L85Q
B12: variant CD80 IgV-Fc E35D/D46V/M47L/V68M (Fc fusion, not shown: small tags and cut ends; a dimerising Fc or GST)
chain: B6 chain with E35D, D46V, V68M
B13: variant CD80 IgV-Fc Q33R/E35D/K37E/M47V/L85Q (Fc fusion, not shown: a dimerising Fc or GST)
chain: B6 chain with Q33R, E35D, K37E, L47V, L85Q
B14: variant CD80 IgV-Fc Q27H/E35D/M47L/L85Q/R94Q/E95K (Fc fusion, not shown: a dimerising Fc or GST)
chain: B6 chain with Q27H, E35D, L85Q, R94Q, E95K

What was measured:
CD96 = target: T1, CD96; test: flow cytometry, Fc fusion at 100 nM, CD96-transfected cells
CD226 = target: T2, CD226; test: flow cytometry, Fc fusion at 100 nM, CD226-transfected cells
[1] = target: T3, CD28 endogenously expressed on Jurkat/IL2 reporter cells (human, UniProt P10747 19-220); test: flow cytometry, Jurkat cells (CD28)
T3 construct: also called Jurkats (CD28)

[2] = target: T4, human PD-L1, full-length, on CHO cells (human, UniProt Q9NZQ7 19-290); test: flow cytometry; PD-L1 MFI over CD28 MFI
T4 construct: also called huPD-L1; CD274
T4 sequence (Q9NZQ7 19-290): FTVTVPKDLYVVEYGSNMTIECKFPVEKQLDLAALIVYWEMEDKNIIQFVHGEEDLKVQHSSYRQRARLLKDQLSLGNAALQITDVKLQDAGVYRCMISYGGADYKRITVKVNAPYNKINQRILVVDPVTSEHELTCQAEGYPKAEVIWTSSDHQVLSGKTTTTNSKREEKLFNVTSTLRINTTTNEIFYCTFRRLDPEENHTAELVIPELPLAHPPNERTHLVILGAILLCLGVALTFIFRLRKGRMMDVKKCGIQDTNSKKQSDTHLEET

[3] = target: T5, human CTLA4 (CTLA-4), full-length, on CHO cells (human, UniProt P16410 36-223); test: flow cytometry, CHO cells stably expressing CTLA4
T5 construct: also called huCTLA4
T5 sequence (P16410 36-223): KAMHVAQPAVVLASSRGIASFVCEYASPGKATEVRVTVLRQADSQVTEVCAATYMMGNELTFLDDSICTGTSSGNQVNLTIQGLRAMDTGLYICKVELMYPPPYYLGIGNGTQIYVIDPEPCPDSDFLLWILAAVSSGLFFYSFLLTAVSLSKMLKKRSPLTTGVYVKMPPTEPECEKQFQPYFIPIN

[4] = target: T4, human PD-L1, full-length, on CHO cells; test: flow cytometry, CHO cells stably expressing PD-L1
[5] = target: T5, human CTLA4 (CTLA-4), full-length, on …; test: flow cytometry, CHO/CTLA4 cells; MFI relative to WT CD80 ECD-Fc
[6] = target: T4, human PD-L1, full-length, on CHO cells; test: flow cytometry, CHO/PD-L1 cells; MFI relative to WT CD80 ECD-Fc
[7] = target: T3, CD28 endogenously expressed on …; test: flow cytometry, Jurkat cells (CD28); MFI relative to WT CD80 ECD-Fc
[8] = target: T6, CD28 (endogenously expressed on Jurkat/IL2 reporter cells) (human, UniProt P10747 19-220); test: flow cytometry, Jurkat/IL2 reporter cells (endogenous CD28), PE anti-human Fc
T6 construct: Endogenous CD28 of Jurkat cells; also called human CD28

[9] = target: T7, human PD-L1 (full-length, expressed on CHO cells) (human, UniProt Q9NZQ7 19-290); test: flow cytometry, CHO cells expressing huPD-L1, PE anti-human Fc
T7 construct: also called huPD-L1; CD274
T7 sequence (Q9NZQ7 19-290): as the sequence (Q9NZQ7 19-290) above

Binder | MFI at 100 nM (CD96) [MFI] | MFI at 33.3 nM [3] [MFI] | MFI at 33.3 nM [4] [MFI] | also measured
B1 | 1560 |  |  | 
B2 | 1860 |  |  | MFI at 100 nM (CD226): 2430 MFI
B3 | 1540 |  |  | MFI at 100 nM (CD226): 3790 MFI
B4 | 1700 |  |  | MFI at 100 nM (CD226): 2450 MFI
B5 | 1480 |  |  | MFI at 100 nM (CD226): 2150 MFI
B6 |  | 30800 | 1900 | MFI at 33.3 nM [1]: 309 MFI; Ratio of PDL1:CD28 [2]: 6.1 ratio; Fold change to WT CD80 [5]: 0.8 fold; Fold change to WT CD80 [6]: 14.8 fold; Fold change to WT CD80 [7]: 0.4 fold
B7 |  |  |  | MFI at 33.3 nM [8]: 266 MFI
B8 |  | 50100 | 3970 | 
B9 |  | 31200 | 26100 | 
B10 |  | 49700 | 3900 | 
B11 |  | 32500 | 29700 | 
B12 |  | 34300 | 29300 | 
B13 |  |  |  | MFI at 33.3 nM [9]: 44400 MFI; MFI at 33.3 nM [8]: 258 MFI
B14 |  |  |  | MFI at 33.3 nM [9]: 36100 MFI; MFI at 33.3 nM [8]: 282 MFI
